Our source for the EC50 of BNP for cGMP production in HEK NPRA cells in presence of 400 nM Fab 5504 and EC50 of BNP for cGMP production in HEK NPRA cells in presence of 400 nM negative control Fab values is patent publication US20120114659A1.

The experiment addresses human NPRA on HEK cells, without ligand (human) (UniProt P16066). The experiment is described as follows: cell-based or functional assay.

Sequence of human NPRA on HEK cells, without ligand (human) (P16066 33-1061 limits assumed): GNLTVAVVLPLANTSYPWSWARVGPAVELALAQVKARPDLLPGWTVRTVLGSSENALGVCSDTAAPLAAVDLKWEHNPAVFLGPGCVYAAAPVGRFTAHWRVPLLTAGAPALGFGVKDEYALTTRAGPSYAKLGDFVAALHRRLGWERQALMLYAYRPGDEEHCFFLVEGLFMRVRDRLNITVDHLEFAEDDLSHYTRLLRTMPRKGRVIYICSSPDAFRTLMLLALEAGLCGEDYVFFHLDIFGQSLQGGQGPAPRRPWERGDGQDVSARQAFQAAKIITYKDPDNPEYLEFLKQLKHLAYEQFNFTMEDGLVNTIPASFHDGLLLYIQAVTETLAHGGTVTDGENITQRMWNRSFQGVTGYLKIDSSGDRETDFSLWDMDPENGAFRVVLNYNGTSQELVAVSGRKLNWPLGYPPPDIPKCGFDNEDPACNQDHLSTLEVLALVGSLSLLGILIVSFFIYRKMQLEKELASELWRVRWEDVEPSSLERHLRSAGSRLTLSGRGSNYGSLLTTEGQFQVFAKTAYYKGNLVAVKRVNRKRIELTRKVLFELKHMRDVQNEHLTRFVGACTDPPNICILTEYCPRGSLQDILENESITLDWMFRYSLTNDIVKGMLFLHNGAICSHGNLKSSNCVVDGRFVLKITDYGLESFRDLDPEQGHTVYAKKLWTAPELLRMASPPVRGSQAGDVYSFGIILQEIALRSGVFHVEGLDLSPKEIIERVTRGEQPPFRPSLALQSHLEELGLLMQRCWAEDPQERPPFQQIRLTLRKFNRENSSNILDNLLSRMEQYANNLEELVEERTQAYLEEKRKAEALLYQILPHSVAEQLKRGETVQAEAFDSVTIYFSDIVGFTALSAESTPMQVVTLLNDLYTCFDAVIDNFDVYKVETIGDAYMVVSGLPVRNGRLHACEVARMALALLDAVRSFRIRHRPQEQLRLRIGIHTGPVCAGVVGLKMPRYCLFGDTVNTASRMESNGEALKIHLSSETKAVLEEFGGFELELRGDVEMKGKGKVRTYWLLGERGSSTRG
Sequence of BNP (B-type natriuretic peptide) (P16860 103-134): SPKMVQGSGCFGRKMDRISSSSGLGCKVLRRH

With “BNP (B-type natriuretic peptide) (from UniProt P16860 103-134)”, the EC50 of BNP for cGMP production in HEK NPRA cells in presence of 400 nM Fab 5504 turned out to be 18 nM and the EC50 of BNP for cGMP production in HEK NPRA cells in presence of 400 nM negative control Fab was 90 nM.
